From PMC9953421, “Regulation of CRISPR-Associated Genes by Rv1776c (CasR) in Mycobacterium tuberculosis” come the findings set out here.

This series addresses T1, CasR (Rv1776c) (UniProt O33179 1-186).
T1 sequence: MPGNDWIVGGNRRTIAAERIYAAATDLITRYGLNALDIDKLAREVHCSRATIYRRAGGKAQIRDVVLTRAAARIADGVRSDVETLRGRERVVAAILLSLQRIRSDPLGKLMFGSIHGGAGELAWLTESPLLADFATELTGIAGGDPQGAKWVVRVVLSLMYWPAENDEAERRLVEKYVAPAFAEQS
Kind of series: EMSA; 0-2 uM protein. Conditions: protein: recombinant; tags: N-terminal His (pET28a); chain copies: 2. (In EMSA bound probe runs differently from free probe, usually more slowly.)

B1: casRp4 (dsDNA)
DNA 1: AATAGCGCCCCGTTGTTAGACTAGATGA
DNA 2: TCATCTAGTCTAACAACGGGGCGCTATT
Consider B1, for which the binding result is on record as “no binding”.

B2: csm6p2 (dsDNA)
DNA 1: CGATCAGGAAAACAATTAGACGCAGGGGC
DNA 2: GCCCCTGCGTCTAATTGTTTTCCTGATCG
As to B2, the binding result is reported as “no binding”.
